Source: paper PMC9265643
Where “and” joins values, the source holds several entries; their conditions need not be identical. Identical values can stand only once. Each block holds one substance with its values, some of them ahead of it.

Tests used:
[1] = target: ErGtα-mRuby3 (wildtype European robin cone G protein α-subunit with mRuby3 fused to its C-terminus) (European robin); assay: FRET or BRET; acceptor photobleaching FRET in transiently co-transfected QNR/K2 quail neuroretina cells, fixed 48 h after transfection; donor mClover3, acceptor mRuby3; FRET efficiency in percent
[2] = target: myristoylated Gtα/Giα chimera (European robin cone Gtα with residues 220-298 replaced by the corresponding region of bovine Giα1) (European robin | bovine); assay: SPR; Biacore 3000; Gtα/Giα chimera (myristoylated or non-myristoylated) amine-coupled on CM5 chip, ErCry variant injected; 10 mM HEPES/NaOH pH 7.4, 150 mM NaCl, 10 mM MgCl2, 0.005% Tween-20, 3.4 mM EDTA; control surface Ulp1 (activation/deactivation cycle for ErCry1a); global fit to a two-state-reaction model, apparent KD = kd1/ka1
[3] = target: non-myristoylated Gtα/Giα chimera (European robin cone Gtα with residues 220-298 replaced by the corresponding region of bovine Giα1), His6-SUMO tag removed (European robin | bovine); assay: as above
[4] = target: non-myristoylated Gtα/Giα chimera (European robin cone Gtα with residues 220-298 replaced by the corresponding region of bovine Giα1), His6-SUMO tag removed (European robin | bovine); assay: as above; remark: listed apart in the source
[5] = target: non-myristoylated Gtα/Giα chimera (European robin cone Gtα with residues 220-298 replaced by the corresponding region of bovine Giα1), His6-SUMO tag removed (European robin | bovine); assay: SPR; Biacore 3000; Gtα/Giα chimera (myristoylated or non-myristoylated) amine-coupled on CM5 chip, 500 nM ErCry4a-497 injected; 10 mM HEPES/NaOH pH 7.4, 150 mM NaCl, 10 mM MgCl2, 0.005% Tween-20, 3.4 mM EDTA; fit to a Langmuir binding model, apparent KD
[6] = target: non-myristoylated Gtα/Giα chimera (European robin cone Gtα with residues 220-298 replaced by the corresponding region of bovine Giα1), His6-SUMO tag removed (European robin | bovine); assay: as above; remark: listed apart in the source
[7] = target: myristoylated Gtα/Giα chimera (European robin cone Gtα with residues 220-298 replaced by the corresponding region of bovine Giα1) (European robin | bovine); assay: as above
[8] = target: rhodopsin (dark-adapted) (Bos taurus) (UniProt P02699); assay: SPR; conditions: cited from earlier work
UniProt P02699, sequence (P02699 whole entry): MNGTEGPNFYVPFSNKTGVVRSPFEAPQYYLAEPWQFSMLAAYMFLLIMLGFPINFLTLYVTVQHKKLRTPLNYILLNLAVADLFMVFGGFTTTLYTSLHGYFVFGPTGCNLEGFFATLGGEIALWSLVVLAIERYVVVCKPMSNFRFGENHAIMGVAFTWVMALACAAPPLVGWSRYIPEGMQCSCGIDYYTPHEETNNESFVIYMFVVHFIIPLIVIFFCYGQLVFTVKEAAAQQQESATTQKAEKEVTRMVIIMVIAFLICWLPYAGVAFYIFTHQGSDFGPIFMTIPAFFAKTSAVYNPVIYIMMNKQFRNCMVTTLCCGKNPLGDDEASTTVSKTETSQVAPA

Substance: mClover3-ErCry4 (ErCry4a with mClover3 fused to its N-terminus) (natural protein)
FRET efficiency [1]: 49.7%

Substance: C-terminally truncated European robin cryptochrome 4a (ErCry4a-497) (domain or fragment)
Kd [5]: 360 nM
Kd [6]: 340 nM
koff [6]: 0.00305 s⁻¹
kon [6]: 6510 M⁻¹ s⁻¹
Kd [7]: 200 nM
koff [7]: 0.000915 s⁻¹
kon [7]: 5350 M⁻¹ s⁻¹

Substance: mClover3-ErCry4, truncated after aa 497 (domain or fragment)
FRET efficiency [1]: 49.5%

Substance: transducin (from UniProt P04695)
Kd [8]: 360 nM

Results, then the substance that gave them:

Kd [2]: 400 nM
ka1 (two-state-reaction model, forward reaction rate) [2]: 130000 M⁻¹ s⁻¹
kd1 (two-state-reaction model, backward reaction rate) [2]: 0.0527 s⁻¹
Substance: European robin cryptochrome 1a (ErCry1a), apo form without bound FAD (natural protein)

Kd [3]: 32 nM
ka1 (two-state-reaction model, step A + B to AB) [3]: 343000 M⁻¹ s⁻¹
kd1 (two-state-reaction model, step AB to A + B) [3]: 0.011 s⁻¹
Kd [2]: 200 nM and 290 nM
ka1 (two-state-reaction model, step A + B to AB) [2]: 3320 M⁻¹ s⁻¹
kd1 (two-state-reaction model, step AB to A + B) [2]: 0.000674 s⁻¹
Kd [4]: 35 nM
Substance: European robin cryptochrome 4a (ErCry4a), purified recombinant, as used in SPR (natural protein)

Kd [2]: 1530 nM
ka1 (two-state-reaction model, forward reaction rate) [2]: 21700 M⁻¹ s⁻¹
kd1 (two-state-reaction model, backward reaction rate) [2]: 0.0332 s⁻¹
Substance: European robin cryptochrome 1b (ErCry1b), apo form without bound FAD (natural protein)
